In the supplement of paper PMC7877785:
± gives the uncertainty stated by the source.

Assay: self-splicing fitness, log relative to wild type (ln ratio); higher = more splicing; Tetrahymena group I intron in knt gene, E. coli kanamycin selection, DiMSum; sequences stand for … in CUCUCU…GGAGGGAAAAGUUAUCAGGCAUGCACCUGGUAGCUAGUCUUUAAACCAAUAGAUUGCAUCGGUUUAAAAGGCAAGACCGUCAAAUUGCGGGAAAGGGGUCAACAGCCGUUCAGUACCAAGUCUCAGGGGAAACUUUGAGAUGGCCUUGCAAAGGGUAUGGUAAUAAGCUGACGGACAUGGUCCUAACCACGCAGCCAAGUCCUAAGUCAACAGAUCUUCUGUUGAUAUGGAUGCAGUUCACAGACUAAAUGUCGGUCGGGGAAGAUGUAUUCUUCUCAUAAGAUAUAGUCGGACCUCUCCUUAAUGGGAGCUAGCGGAUGAAGUGAUGCAACACUGGAGCCGCUGGGAACUAAUUUGUAUGCGAAAGUAUAUUGAUUAGUUUUGGAGUACUCGUGGUCG
Outline: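 Pooled colonies went to amplicon sequencing on an Illumina HiSeq 2500 after six replicate transformations. The plates were LB agar with 100 μg/mL carbenicillin, 50 μM IPTG and 0.2% rhamnose, with or without 25 μg/mL kanamycin, incubated overnight at 37°C or 30°C. The E. coli BL21(DE3) library had all eight P1ex-region intron nucleotides randomised, the intron placed in the knt kanamycin-resistance gene on pET-22b(+). DiMSum fitness is the error-weighted combination of replicate fold changes, kanamycin against none, normalised to wild type.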

Sequence	self-splicing fitness (ln) (30 °C)	self-splicing fitness (ln) (37 °C)
CGAUAGCAAUAUUACGCAAG	-1.97 ± 0.13	-0.614 ± 0.11
CGAUAGCAAUAUUACGCACA	-0.708 ± 0.088	-0.0385 ± 0.12
CGAUAGCAAUAUUACGCCAG	-1.35 ± 0.1	-0.84 ± 0.15
CGAUAGCAAUAUUACGCCCU	-0.983 ± 0.2	0.695 ± 0.25
CGAUAGCAAUAUUACGCUGG	-0.585 ± 0.19	-1.43 ± 0.23
CGAUAGCAAUAUUACGCUUA	-2.23 ± 0.12	-1.19 ± 0.078
CGAUAGCAAUAUUACGGAAU	-3.23 ± 0.16	-2.01 ± 0.2
CGAUAGCAAUAUUACGGACU	-1.28 ± 0.095	-0.496 ± 0.11
CGAUAGCAAUAUUACGGAUU	-2.89 ± 0.11	-2.61 ± 0.2
CGAUAGCAAUAUUACGGCGC	-1.21 ± 0.15	-0.875 ± 0.26
CGAUAGCAAUAUUACGGCUA	-3.24 ± 0.49	-1.08 ± 0.17
CGAUAGCAAUAUUACGGCUG	-0.568 ± 0.1	0.209 ± 0.15
CGAUAGCAAUAUUACGGCUU	-2.67 ± 0.17	-1.51 ± 0.19
CGAUAGCAAUAUUACGUCAC	-3.44 ± 0.26	-2.34 ± 0.25
CGAUAGCAAUAUUACGUCGU	-4.24 ± 0.2	-3.05 ± 0.21
CGAUAGCAAUAUUACGUCUU	-1.49 ± 0.13	-0.12 ± 0.13
CGAUAGCAAUAUUACGUUCU	-1.15 ± 0.07	-0.384 ± 0.094
CGAUAGCAAUAUUACGUUUU	-3.78 ± 0.19	-2.76 ± 0.16
CGCAAGCAAUAUUACGAAUC	-4.8 ± 0.38	-1.29 ± 0.18
CGCAAGCAAUAUUACGAGCG	-3 ± 0.38	-2.52 ± 0.44
CGCAAGCAAUAUUACGAGGG	-3.85 ± 0.23	-2.9 ± 0.32
CGCAAGCAAUAUUACGAUUU	-2.45 ± 0.16	-2.33 ± 0.18
CGCAAGCAAUAUUACGCCGU	-2.67 ± 0.25	-0.883 ± 0.14
CGCAAGCAAUAUUACGCCUA	-0.46 ± 0.094	-0.653 ± 0.1

Sequence	self-splicing fitness (ln) (30 °C)	self-splicing fitness (ln) (37 °C)
CGCAAGCAAUAUUACGCUAG	-2.46 ± 0.16	-2.89 ± 0.2
CGCAAGCAAUAUUACGGAAA	-2.31 ± 0.33	-2.5 ± 0.2
CGCAAGCAAUAUUACGGAAG	-1.03 ± 0.097	-1.44 ± 0.1
CGCAAGCAAUAUUACGGCAC	-2.32 ± 0.21	-1.29 ± 0.3
CGCAAGCAAUAUUACGGCAU	-1.63 ± 0.071	-0.555 ± 0.079
CGCAAGCAAUAUUACGGCGU	-3.52 ± 0.15	-2.2 ± 0.18
CGCAAGCAAUAUUACGGCUG	-1.33 ± 0.065	0.0892 ± 0.085
CGCAAGCAAUAUUACGGGAG	-2.73 ± 0.095	-2.19 ± 0.12
CGCAAGCAAUAUUACGGUCA	-0.699 ± 0.067	0.0685 ± 0.079
CGCAAGCAAUAUUACGUACA	-2.03 ± 0.11	-0.56 ± 0.085
CGCAAGCAAUAUUACGUAGA	-2.6 ± 0.11	-1.73 ± 0.13
CGCAAGCAAUAUUACGUGCG	-2.81 ± 0.26	-2.23 ± 0.2
CGCAAGCAAUAUUACGUGGC	-3.9 ± 0.2	-1.93 ± 0.17
CGCAAGCAAUAUUACGUGGG	-4.69 ± 0.25	-3.16 ± 0.17
CGCCAGCAAUAUUACGAAAC	-4.57 ± 0.36	-1.78 ± 0.2
CGCCAGCAAUAUUACGAAGG	-1.36 ± 0.11	-1.9 ± 0.16
CGCCAGCAAUAUUACGAAGU	-3.65 ± 0.16	-2.13 ± 0.11
CGCCAGCAAUAUUACGAGGA	-3.07 ± 0.19	-2.41 ± 0.22
CGCCAGCAAUAUUACGAGUA	-2.79 ± 0.18	-1.52 ± 0.18
CGCCAGCAAUAUUACGAUAA	-3.9 ± 0.46	-2.78 ± 0.35
CGCCAGCAAUAUUACGAUGG	-3.09 ± 0.15	-2.72 ± 0.23
CGCCAGCAAUAUUACGAUUC	-4.81 ± 0.46	-3.22 ± 0.35
CGCCAGCAAUAUUACGAUUG	-0.454 ± 0.06	0.047 ± 0.083
